From the RNAGym collection of RNA variant scans (doi:10.1073/pnas.2313332121)
This sample holds only a part of the variants without activity.

B1: TPR 5TU (parent)
chain: GGAUCUUCUCGAUCUAACAAAAAAGACAAAUCUGCCACAAAGCUUGAGAGCAUCUUCGGAUGCAGAGGCGGCAGCCUUCGGUGGCGCGAUAGCGCCAACGUUCUCAACUAUGACACGCAAAACGCGUGCUCCGUUGAAUGGAGUUUAUCAUG

Variants of: B1
Experiment: polymerase ribozyme fitness, log enrichment relative to wild type (log ratio); higher = more active; in vitro selection for triplet polymerase activity
Method in brief: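 In triplicate, a single round of in vitro selection was run on each mutant library, PCR-built and transcribed, covering one subunit of a heterodimeric triplet polymerase ribozyme. Frozen incubation at −7 °C followed annealing with a biotinylated primer, partner subunit and triplets, and extended constructs were then gel-excised, streptavidin-captured and taken through RT-PCR. Fitness is the logarithm of genotype enrichment over wild-type enrichment, from inverse-variance-weighted replicate averages of Illumina-sequenced inputs and outputs. […] only genotypes with ≥10 input reads and ≥1 read per output were kept.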

Row | Variant | polymerase ribozyme fitness (log ratio)
1 | U56A U101G U144C | -0.262
2 | C54G G81A C95U | -2.33
3 | U56A G84A A98U U101C | -1.09
4 | C54U G86U A150U | -0.319
5 | U55G G74A C85U A110G | ≤ -4.2
6 | U55A G88A | ≤ -4.2
7 | C54U U56A G84U | -0.698
8 | U56A A60G C79G A119C A121U | -3.78
9 | U55A G59C | 0.269
10 | U55A C76G G92A A122G | ≤ -4.2
11 | C54G G141A | -1.35
12 | C54G A122G U144G | -0.687
13 | C54U C76U C87U U127A U139C A142U C149G | ≤ -4.2
14 | C54U C76G A89C A91G G94U U146G | ≤ -4.2
15 | U55A C57A G59C G80U A91U | ≤ -4.2
16 | U55A C69U C85A C87U | ≤ -4.2
17 | U56A U139C | -3.15
18 | U55A A66U A98G A122U A150C | ≤ -4.2
19 | C54A G124A C125U A147C | -2.1
20 | U55A A73G U135A U146C | -0.581
21 | U55A C99G | -1.61
22 | U55A A60C C85U A89G | -4.15
23 | U55A C93U A150C | -4.02
24 | U55G C131A | -2.39

Row | Variant | polymerase ribozyme fitness (log ratio)
25 | U55A A106G A119C A122G | -0.869
26 | U56A C85A U101G G152C | -4.1
27 | U55G G88U G94A G124A C125G G126A A142U | ≤ -4.2
28 | C54G G86A C129G | -3.8
29 | U56A C87U | -1.66
30 | U55A C57G | -0.56
31 | C54G C69A A73G G86U C105A C118A C125A U148A | ≤ -4.2
32 | U55A A98U U135A | -1.42
33 | U55G C76A G92A C108U | ≤ -4.2
34 | U56A C85A A91G G128U | ≤ -4.2
35 | U55G C85A C99U G136A | -3.43
36 | U56A C93A A98G | -2.63
37 | U55A C63A C96G | -2
38 | U56A G88C A122G C123G | ≤ -4.2
39 | C54U G80U | -0.459
40 | U55A U148A | -3.84
41 | U55A A98U U111C | -4.16
42 | C54U C85U C116A | 0.743
43 | U56A U82A C96A C114G | -3.42
44 | C54G A66U A137G | ≤ -4.2
45 | C54U G141A | -0.888
46 | U55G G86U C95U | -0.739
47 | U56A U82G C96U A120G | -0.394
48 | C54A U77G C85U C93G G117C G136A | ≤ -4.2

Row | Variant | polymerase ribozyme fitness (log ratio)
49 | C54U C72U U135C | -3.15
50 | U56A C93A A106G | -1.97
51 | U56A U146A | -0.732
52 | C54U G84A | -0.613
53 | U55G C85G G88U G92U C108U | ≤ -4.2
54 | C54U U56A A60G G84U G126U | -1.81
55 | C54U G59A C76A C85U | 0.107
56 | U55G C93U C116U G141A U144G | -2.63
57 | U55A G83A C105G C118A | -3.78
58 | C54U U56A G70A C85A G86U C95G | ≤ -4.2
59 | C54U G126U | 0.161
60 | C54A U61C G65A G88U C95G C103G A115C A119C U135G U144G | ≤ -4.2
61 | U55G C85U A91G G94A | -3.29
62 | U55A G83U A137G | -2.28
63 | U55A C76G U134G | ≤ -4.2
64 | U55C G74U | ≤ -4.2
65 | U56A C85U C114A G141C | ≤ -4.2
66 | U56A G83A C87U | -3.83
67 | C54G C87G C99G | ≤ -4.2
68 | U56A G58A A73G C96U U102G G117A U135A G141A | ≤ -4.2
69 | U55G G59U G67C U77A C96G A119C U139A U148G | ≤ -4.2
70 | U56A C95U | 0.199
71 | U55G C57A G62C C79U U109G | ≤ -4.2
72 | U55A C85A C93G | ≤ -4.2

Row | Variant | polymerase ribozyme fitness (log ratio)
73 | U55G C103A | -2.99
74 | U55G G58U G62C C85U A137G | -3.31
75 | U55G U56A C57G C76A C93A | -3.7
76 | C54U G84A C93G | ≤ -4.2
77 | U55A U109G | -1.03
78 | U55A G67U C69G C76A A98G | -2.81
79 | U56A G80C C93A C95A U102G C114A A150U | ≤ -4.2
80 | U56A C99A | -1.6
81 | U55A A89U | -0.224
82 | U55A C96A A107C C116A G124C U151A | ≤ -4.2
83 | U56A G88C C99U A119G | ≤ -4.2
84 | U55A A120U | -0.857
85 | C54G G80C A89G C93A | ≤ -4.2
86 | U55G A98G U139G | -0.271
87 | C54G U56G G92A | ≤ -4.2
88 | C54U G58A G94U | -0.705
89 | U56A C87U U148A | -3.33
90 | C54G G58A U78G C108A G126U | ≤ -4.2
91 | U55C C57G | 0.125
92 | U55A C85G | -2.99
93 | U55A C85A | -2.26
94 | U56A G58U G94C U145G | 0.0333
95 | U55A G68A G86U U90A A97U U101A A137C U145C | ≤ -4.2
96 | C54A U56A G67U C85A G88A U101G G141C | ≤ -4.2

Row | Variant | polymerase ribozyme fitness (log ratio)
97 | U55A C85U C116G G133C | -1.34
98 | U55A G68A C76A C96G C114G G133A A138U | ≤ -4.2
99 | C54U U56A C93U C131G G133A U146A G152U | -4
100 | U56A G58C G59C C76G | ≤ -4.2
101 | C54U A97U A107C | ≤ -4.2
102 | U56A G68A | -4.01
103 | U55A G128U | -3.12
104 | C54G G71C C85U C93U U144G | ≤ -4.2
105 | U56A G94C A115C A121U U134A A147U | -3.74
106 | U55A G128C U146A | -4.09
107 | U55A U82G G92A C103U G124A | -3.62
108 | C54U U55G U56A C69U A73C A115U | ≤ -4.2
109 | U56A G84C A150G | -3.39
110 | U55G C69U G71U G128A | ≤ -4.2
111 | U55A A106G A113U G136C | ≤ -4.2
112 | U56A G59U C69A C87U U101C G140U | -3.01
113 | C54U C76A C96A U127C G136A | -3.34
114 | U55G U56A U82A U145A | -1.23
115 | U56A G136U | -2.72
116 | U55A A119G U148G | -3.77
117 | U55C U82G C95U | -0.677
118 | U55G U90G C123G U134A | ≤ -4.2
119 | U55A C79A | ≤ -4.2
120 | U56A U109C G141U | -2.56

Row | Variant | polymerase ribozyme fitness (log ratio)
121 | U56A A89C | -0.735
122 | U55G C87A | -4.1
123 | U56A G88C U145G | -4.05
124 | U55A C63G | 0.923
125 | U55A C96U | -0.113
126 | U55A C85A U102A | ≤ -4.2
127 | C54U G68A A97G G124A U144C | -3.84
128 | U55G G84C A107G A142C | ≤ -4.2
129 | U55A G74A | -3.26
130 | C54U C99A U146G A150U | -3.6
131 | U55G C87U C129G | -3.16
132 | C54U U55A C87A | ≤ -4.2
133 | U56A G81U C93G | -3.18
134 | U55A C85U C114G G128A | ≤ -4.2
135 | U55G G71A C87G G112C | ≤ -4.2
136 | C54U A97G C99G U135G | -3.75
137 | U55C U144C | 0.187
138 | C54G U55A G84A | -1.93
139 | U56A C76U C125U U148G G152U | -3.64
140 | U56C C69A U135A | -3.01
141 | U56A G128A | -3.15
142 | C54A G143C | -2.81
143 | U56A G92A A150G | -2.08
144 | C54G G58A A89U A98G G133C | -2.63

Row | Variant | polymerase ribozyme fitness (log ratio)
145 | U55C A91G A106C C129U C131U | ≤ -4.2
146 | C54U C85U U104G A119G G136A U146G A147G | -3.62
147 | C54A G94C A107C C108G | ≤ -4.2
148 | C54G C103U | -2.16
149 | C54U C87A A89G C96U A121U A142C | ≤ -4.2
150 | U56A U61G U134G | -3.93
151 | U55A G62C G117A C131G | ≤ -4.2
152 | U55G C96U C105U G143A | -0.651
153 | U55A G58C G68U G81A A91U C96A | ≤ -4.2
154 | U56A C76U C87U C129G A150C | ≤ -4.2
155 | U55A C93U C95A | -2.89
156 | C54A U56A C96U C105U G126A | -2.51
157 | C54G C96U A142C | -3.34
158 | U56A A137C | -3.11
159 | U56A C114G | -3.1
160 | C54U G58A C93U | -1.1
161 | U56A G83A | -0.831
162 | U55A U56A C57A C85U G86A C103G | ≤ -4.2
163 | C54A U90G | ≤ -4.2
164 | U55A A73G U77G A91C C116A G141A | ≤ -4.2
165 | U56A G58A C93A | -1.41
166 | C54U C85U G136U | -2.08
167 | C54G C96U U111G G133U A137G | ≤ -4.2
